Test results published in patent US20220041715A1.

Key:
[1] = target: spike of SARS-CoV-2 variant B.1.1.7 (UK) on pseudotype virus (SARS-CoV-2) (UniProt P0DTC2); experiment: cell-based or functional assay
[2] = target: spike of SARS-CoV-2 variant B.1.351 (South Africa) on pseudotype virus (SARS-CoV-2) (UniProt P0DTC2); experiment: cell-based or functional assay
[3] = target: spike of SARS-CoV-2 variant B.1.427/B.1.429 (California) on pseudotype virus (SARS-CoV-2) (UniProt P0DTC2); experiment: cell-based or functional assay
[4] = target: spike of SARS-CoV-2 variant P.1 (Japanese/Brazilian) on pseudotype virus (SARS-CoV-2) (UniProt P0DTC2); experiment: cell-based or functional assay
[5] = target: CoV-2 RBD (W436R) (SARS-CoV-2) (UniProt P0DTC2); experiment: ELISA
[6] = target: CoV-2 RBD (V367F) (SARS-CoV-2) (UniProt P0DTC2); experiment: ELISA
[7] = target: CoV-2 RBD (N354D, D364Y) (SARS-CoV-2) (UniProt P0DTC2); experiment: ELISA
[8] = target: CoV-2 RBD (N354D) (SARS-CoV-2) (UniProt P0DTC2); experiment: ELISA
[9] = target: CoV-2 S (R683A, R685A) (SARS-CoV-2) (UniProt P0DTC2); experiment: ELISA
[10] = target: CoV-2 S (D614G) (SARS-CoV-2) (UniProt P0DTC2); experiment: ELISA

Substance | pseudotype virus neutralization IC50 relative to Wuhan-Hu-1 [1] [fold] | pseudotype virus neutralization IC50 relative to Wuhan-Hu-1 [2] [fold] | pseudotype virus neutralization IC50 relative to Wuhan-Hu-1 [3] [fold] | pseudotype virus neutralization IC50 relative to Wuhan-Hu-1 [4] [fold] | EC50 [5] [µg/mL] | EC50 [6] [µg/mL] | EC50 [7] [µg/mL] | EC50 [8] [µg/mL] | EC50 [9] [µg/mL] | EC50 [10] [µg/mL]
rCIG (recombinant coronavirus-2 immune globulin; recombinant anti-coronavirus 19 hyperimmune gammaglobulin) (antibody) | < 6 | < 6 | < 6 | < 6 | 0.07 | 0.07 | 0.08 | 0.07 | 0.09 | 0.05
IVIG (Gamunex; Grifols) (antibody) | – | – | – | – | 1240 | 1130 | 1320 | 1240 | 2840 | 1330
